Measurements from US20050175581.

T1: substrate B
T1 chain: KKWLGRVPGGPV

T2: substrate A
T2 chain: LLWLGRVVGGPV


Key:
substrate B = molecular target: T1, substrate B
substrate A = molecular target: T2, substrate A

Row | Protein | rate constants of the proteolytic digestion (proportional to kcat/KM), relative to human trypsin I (substrate B) | rate constants of the proteolytic digestion (proportional to kcat/KM), relative to human trypsin I (substrate A)
1 | Variant 2 (protein) IVGGYNCEENSVPYQVSLNSGYHFCGGSLINEQWVVSAGHCYNGRDLEKSRIQVRLGEHNIEVLEGNEQFINAAKIIRHPQYDRKTLNNDIMLIKLSSRAVINARVSTISLPTAPPATGTKCLISGWGNVRGTWTASSGADYPDELQCLDAPVLSQAKCEASYPGKITSNMFCVGFLEGGKDSCQGDSGGPVVCNGQLQGVVSWGDGCAQKNKPGVYTKVYNYVKWIKNTIAANS | the specific activity of variants 1 and 2 is shifted (SEQ ID NOs: 2 and 3, respectively) towards substrate B | 
2 | Variant 1 (protein) IVGGYNCEENSVPYQVSLNSGYHFCGGSLINEQWVVSAGHCYDAVGRDKSRIQVRLGEHNIEVLEGNEQFINAAKIIRHPQYDRKTLNNDIMLIKLSSRAVINARVSTISLPTAPPATGTKCLISGWGNTITNSTASSGADYPDELQCLDAPVLSQAKCEASYPGKITSNMFCVGFLEGGKDSCQGDSGGPVVCNGQLQGVVSWGDGCAQKNKPGVYTKVYNYVKWIKNTIAANS | the specific activity of variants 1 and 2 is shifted (SEQ ID NOs: 2 and 3, respectively) towards substrate B | 
3 | Variant 3 (protein) IVGGYNCEENSVPYQVSLNSGYHFCGGSLINEQWVVSAGHCYAATNGDKSRIQVRLGEHNIEVLEGNEQFINAAKIIRHPQYDRKTLNNDIMLIKLSSRAVINARVSTISLPTAPPATGTKCLISGWGNRKDFWTASSGADYPDELQCLDAPVLSQAKCEASYPGKITSNMFCVGFLEGGKDSCQGDSGGPVVCNGQLQGVVSWGDGCAQKNKPGVYTKVYNYVKWIKNTIAANS | serves as a negative control with similar activities as the human trypsin I | serves as a negative control with similar activities as the human trypsin I
